± gives the standard deviation.
Assay: protein stability index of a GFP-peptide fusion (GPS, HEK-293T) (PSI 1-6); higher = more stable
[1] = treatment: DMSO, c terminus: a fixed tail appended
[2] = treatment: MLN4924 1 uM, 8 h, c terminus: a fixed tail appended
[3] = treatment: DMSO, c terminus: native
[4] = treatment: MLN4924 1 uM, 8 h, c terminus: native
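Also: 24-mer peptide tiles fused after GFP, lentivirally expressed, FACS-sorted into six equal bins by GFP/DsRed ratio, decoded by Illumina sequencing, PSI is the read-weighted mean bin number.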

Sequence	protein stability index [1]	protein stability index [2]	protein stability index [3]	protein stability index [4]
EEPRPSRPRYKADVPDLQSVCSCT [KCNK9]	4.62 ± 0.13	4.55 ± 0.19		
LNYTYKRFEGLTQRGSIPTYMKAG [STK38L]	2.5 ± 0.18	2.67 ± 0.22		
QDTELPKAEECDTITLNCPRNSDM [EDARADD]	5.32 ± 0.29	5.42 ± 0.27		
HEPPFHLDREIRLQRLSHSGSRVR [SCNN1D]	4.27 ± 0.13	4.31 ± 0.21		
SILKAMGKTKKDYQEASNLEQFVT [NECAB1]	2.89 ± 0.41	3.04 ± 0.33		
NETRRKHETRLVEVDSGRQIEYEY [LMNB1]	4.54 ± 0.14	4.57 ± 0.23		
ERDIEIGFLPWLMNEVEKTMEYSM [RSPH3]	2.41 ± 0.46	2.42 ± 0.18		
GLSPSIDTLDHIRALDRLQEVPHE [PPP2CA]	4.91 ± 0.22	4.87 ± 0.14		
TITEEIRDGKVISSREHVQSRPL [KRT36]			5.23 ± 0.29	5.26 ± 0.21
QLLLHNTVIFYGADSEQADIARML [ZMYND11]	2.28 ± 0.089	2.3 ± 0.13		
MQSLDDATKQLDFTRKTLAEKKQE [SASS6]	5.12 ± 0.24	5.19 ± 0.27		
LFGGEFEDSVFEERPERRSGPPAS [C8orf76]	4.75 ± 0.18	4.69 ± 0.2		
DAELATRAIPELTKLLNDEDQVVV [CTNNB1]	4.79 ± 0.22	4.8 ± 0.11		
GVSREEIEREVNILREIRHPNIIT [DAPK3]	2.38 ± 0.42			
AALNNHPDIMNLLIKSGAHFDATN [FEM1C]	2.41 ± 0.24	2.54 ± 0.3		
MDEKVFTKELDQWIEQLNECKQLS [PPP2CA]	4.15 ± 0.17	4.15 ± 0.16		
LIQRWYRRYVARLEMRRRCTWSIF [PPEF2]	2.43 ± 1.3	2.73 ± 0.57		
IGQVHEEFKQNIENVSVEMLLRKF [FCHO1]	3.05 ± 0.3	3.32 ± 0.23		
NVPLSISRLTPGGKAAQAGVAVGD [PDLIM7]	4.05 ± 0.23	4.18 ± 0.13		
LELKFVSSLRRQFEFSVDSFQIVL [TENT5D]	3.41 ± 0.5	2.91 ± 0.23		
MRKSGAMKKGGIFSAEFLKVFIPS [BNIP3L]	2.38 ± 0.3	2.26 ± 0.21		
RYILPVYGICREPVGLVMEYMETG [RIPK4]	2.12 ± 0.62	2.69 ± 0.55		
ESDSCVSFEAPLTPLIQQRARDSP [PSD2]	5.02 ± 0.16	4.92 ± 0.24		

Sequence	protein stability index [1]	protein stability index [2]	protein stability index [3]	protein stability index [4]
IKEVQKGGPADLAGLEDEDVIIEV [PDZK1]	2.22 ± 0.27	2.49 ± 0.12		
LKPNNLSCDLPEERYRHEIAHDGQ [KLHDC10]	4.8 ± 0.2	4.8 ± 0.074		
PVPPGWNPNSSSGKGSGGNAGSYI [DLX1]	3.86 ± 0.21	3.93 ± 0.24		
NMSLTALREKLLEAEQSLRNLEDI [TEKT4]	3.29 ± 0.47	3.43 ± 0.46		
APLSGPQALMLPPGSFWGLCQVAQ [VENTX]	2.06 ± 0.28	2.27 ± 0.14		
TDDSYSCHCLKGFTLNPDKKTCRR [MATN2]	3.27 ± 0.78	4.03 ± 0.7		
HKHVVQFYHYFEDKENIYILLEYC [PLK2]	2.63 ± 0.43	2.37 ± 0.71		
SDFEWLKNELERDSKIVVPPLPGK [SNX12]	4.07 ± 0.32	4.13 ± 0.14		
VQERLTKQIAVAITEALRPAGVGV [GCH1]	2.23 ± 0.2	2.17 ± 0.13		
SSGEPVDYNVDIGIPLDGETEEL [MYOZ1]			5.5 ± 0.21	5.23 ± 0.17
RYHFATGVWHQMGTDGYMPRELAS [KLHDC10]	2.6 ± 0.2	2.41 ± 0.24		
SMRLLESKKGLSFFAFEHSEEYQQ [TCF25]	3.35 ± 0.12	3.3 ± 0.16		
HLLGIPHSVLQIRYSGKILKNNET [IQUB]	2.77 ± 0.41	2.32 ± 0.38		
LERYVASLMPLQKSISPWKSPPQL [DENND6A]	2.16 ± 0.28	2.21 ± 0.25		
DMVSNIELPTRIHEEVYFEPSSSK [MIA2]	3.68 ± 0.2	3.88 ± 0.39		
LVATNAHLDHYYQEELPALLKALV [FCHSD1]	2.24 ± 0.23	2.19 ± 0.36		
HHLDEDEERERIERVRRIHIKRPD [KCTD10]	5.09 ± 0.34	5.19 ± 0.076		
AKPRLAERMTTREKKVLEAGMGKV [HDAC6]	4.38 ± 0.17	3.98 ± 0.2		
LPLPEQIHKASATIIEPAGESDNP [INTS4]	5.5 ± 0.26	5.49 ± 0.19		
PGSGPGHGSGSHPGPASGPGPDTG [SPAG8]	5.36 ± 0.16	5.34 ± 0.069		
INTLNGLKLQTKTIKVSYARPSSA [ELAVL3]	2.38 ± 0.2	2.39 ± 0.26		
SFQIVLDPMLDFYSDKNAKLTKES [TENT5D]	2.91 ± 0.43	3.09 ± 0.37		

Reference: the supplement of paper PMC10567573
